Assay results published in publication PMC7933130 (Nature, 2021).

Molecular target: the molecule itself
Assay: SEC-MALS

B1: human Na+-dependent citrate transporter NaCT (SLC13A5), wildtype (natural protein)
chain: not shown
modifications: one glycan unit connected to Asn562 (N-glycosylation site)
stoichiometry N: 2
